Values of other authors in article PMC293425.

Molecular target: relaxin receptor LGR7 (Homo sapiens) (UniProt Q9HBX9)
UniProt Q9HBX9, sequence (Q9HBX9 whole entry): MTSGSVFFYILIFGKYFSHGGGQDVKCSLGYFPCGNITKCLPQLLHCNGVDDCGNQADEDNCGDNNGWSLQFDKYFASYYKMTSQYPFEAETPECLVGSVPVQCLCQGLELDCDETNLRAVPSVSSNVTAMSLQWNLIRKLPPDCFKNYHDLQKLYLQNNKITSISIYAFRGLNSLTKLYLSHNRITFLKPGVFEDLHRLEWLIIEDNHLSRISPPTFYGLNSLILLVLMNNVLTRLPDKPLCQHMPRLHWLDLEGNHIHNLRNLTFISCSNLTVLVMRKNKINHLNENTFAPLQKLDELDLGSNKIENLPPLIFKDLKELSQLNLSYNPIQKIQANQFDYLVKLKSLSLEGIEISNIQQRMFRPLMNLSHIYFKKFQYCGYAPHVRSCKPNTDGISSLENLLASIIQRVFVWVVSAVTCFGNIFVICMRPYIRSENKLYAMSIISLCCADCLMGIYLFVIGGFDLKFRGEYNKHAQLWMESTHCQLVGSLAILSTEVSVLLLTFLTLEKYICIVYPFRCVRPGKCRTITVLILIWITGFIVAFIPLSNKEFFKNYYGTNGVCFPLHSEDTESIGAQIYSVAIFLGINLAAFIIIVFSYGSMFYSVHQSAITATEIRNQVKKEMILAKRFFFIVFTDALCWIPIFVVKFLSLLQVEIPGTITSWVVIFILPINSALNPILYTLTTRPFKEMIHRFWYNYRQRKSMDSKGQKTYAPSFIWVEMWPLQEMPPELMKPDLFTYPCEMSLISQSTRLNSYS

relaxin, sequence (P04090 162-185): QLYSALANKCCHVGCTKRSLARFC

Kd: 1 nM
Substance: relaxin (from UniProt P04090)
